In article PMC10716038, “Talin and kindlin use integrin tail allostery and direct binding to activate integrins” (Nature Structural & Molecular Biology, 2023):
Where “and” joins values, the source holds several entries; their conditions need not be identical. Equal values may be shown once. No end group written: not given here.

Legend:
Settings in all cases: both partners purified
[1] = target: T1, talin-1 head domain (THD1) (UniProt P26039 1-405); experiment: MST; apparent; THD1 titrated to 488–β1-CT or 488–β3-CT in the presence of 500–1,100 µM KIND2-F0; MST buffer
T1 construct: talin-1 (TLN1) head domain (THD), residues 1-405; murine TLN1 cDNA is named only for the cell lines; also called WT; source: E. coli (DE3) Rosetta 2, purified (IMAC, SEC); not shown: His10-SUMO, N-terminal, cleaved

[2] = target: T1, talin-1 head domain (THD1); experiment: MST; apparent; THD1 titrated to 488–β1-CT or 488–β3-CT in the presence of 300–400 µM β-CT-binding-impaired KIND2 Q614A,W615A (QW/AA); MST buffer
[3] = target: T1, talin-1 head domain (THD1); experiment: MST; unlabelled protein titrated to 50-200 nM ATTO 488-labelled β-CT peptide, no third protein; 20 mM Tris pH 7.5, 200 mM NaCl, 1 mM TCEP, 0.05% Tween-20; Kd of individual titrations (in S0002 mean and sd, n = 2)
THD1 K403E = target: T2, THD1 K403E (UniProt P26039 1-405, K403E); experiment: as above
T2 construct: talin-1 (TLN1) head domain, residues 1-405, K403E; source: E. coli (DE3) Rosetta 2, purified (IMAC, SEC); not shown: His10-SUMO, N-terminal, cleaved

THD1 K404A = target: T3, THD1 K404A (UniProt P26039 1-405, K404A); experiment: as above
T3 construct: talin-1 (TLN1) head domain, residues 1-405, K404A; source: E. coli (DE3) Rosetta 2, purified (IMAC, SEC); not shown: His10-SUMO, N-terminal, cleaved

THD1 KKAA = target: T4, THD1 KKAA (UniProt P26039 1-405, KKAA (KK402/403)); experiment: as above
T4 construct: the sheet prints only 'KKAA'; source: E. coli (DE3) Rosetta 2, purified (IMAC, SEC); not shown: His10-SUMO, N-terminal, cleaved

THD1 Y395A = target: T5, THD1 Y395A (UniProt P26039 1-405, Y395A); experiment: as above
T5 construct: talin-1 (TLN1) head domain, residues 1-405, Y395A; source: E. coli (DE3) Rosetta 2, purified (IMAC, SEC); not shown: His10-SUMO, N-terminal, cleaved

THD1 K401A = target: T6, THD1 K401A (UniProt P26039 1-405, K401A); experiment: as above
T6 construct: talin-1 (TLN1) head domain, residues 1-405, K401A; source: E. coli (DE3) Rosetta 2, purified (IMAC, SEC); not shown: His10-SUMO, N-terminal, cleaved

KIND2 Y13A = target: T7, KIND2 Y13A (UniProt Q8CIB5 1-680, Y13A); experiment: as above
T7 construct: kindlin-2 (KIND2), recombinant, Y13A; source: E. coli Rosetta, purified (IMAC, SEC); not shown: His10-SUMO, N-terminal, cleaved
T7 sequence (looked up): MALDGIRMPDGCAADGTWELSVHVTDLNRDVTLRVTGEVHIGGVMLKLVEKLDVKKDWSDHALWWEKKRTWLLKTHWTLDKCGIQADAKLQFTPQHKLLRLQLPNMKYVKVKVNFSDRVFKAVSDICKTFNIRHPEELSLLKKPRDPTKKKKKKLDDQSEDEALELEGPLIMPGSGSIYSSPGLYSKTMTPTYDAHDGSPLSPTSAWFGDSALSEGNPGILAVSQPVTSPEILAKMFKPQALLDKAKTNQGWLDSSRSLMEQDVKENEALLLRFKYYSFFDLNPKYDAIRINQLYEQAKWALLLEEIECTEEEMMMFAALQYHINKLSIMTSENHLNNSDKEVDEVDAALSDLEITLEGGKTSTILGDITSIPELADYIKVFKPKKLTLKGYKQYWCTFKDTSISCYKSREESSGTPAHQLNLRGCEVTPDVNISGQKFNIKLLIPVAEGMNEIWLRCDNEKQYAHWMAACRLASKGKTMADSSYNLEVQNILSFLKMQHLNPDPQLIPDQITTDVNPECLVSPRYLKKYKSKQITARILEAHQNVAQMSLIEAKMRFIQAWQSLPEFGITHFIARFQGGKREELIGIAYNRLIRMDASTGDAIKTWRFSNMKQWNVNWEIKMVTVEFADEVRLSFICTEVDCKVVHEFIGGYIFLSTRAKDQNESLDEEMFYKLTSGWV

T1 sequence (P26039 1-405): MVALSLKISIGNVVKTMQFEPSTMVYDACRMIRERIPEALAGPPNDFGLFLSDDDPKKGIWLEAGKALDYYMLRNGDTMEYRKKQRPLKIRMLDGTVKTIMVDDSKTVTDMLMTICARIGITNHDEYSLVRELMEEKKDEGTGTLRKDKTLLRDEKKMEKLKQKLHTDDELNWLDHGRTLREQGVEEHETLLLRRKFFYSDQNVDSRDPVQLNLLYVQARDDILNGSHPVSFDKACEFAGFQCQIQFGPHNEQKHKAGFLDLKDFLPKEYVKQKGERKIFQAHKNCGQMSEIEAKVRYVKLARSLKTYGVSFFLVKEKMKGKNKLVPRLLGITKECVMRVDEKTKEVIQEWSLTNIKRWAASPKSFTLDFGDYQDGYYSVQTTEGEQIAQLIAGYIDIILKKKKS
T4 sequence (P26039 other isoform, or with tags, fused parts or gaps KKAA (KK402/403) | KKAA (KK402/403)): as the sequence (P26039 1-405) above, with K402A, K403A counted along it
T3 sequence (P26039 1-405 K404A): as the sequence (P26039 1-405) above, with K404A counted along it
T6 sequence (P26039 1-405 K401A): as the sequence (P26039 1-405) above, with K401A counted along it
T5 sequence (P26039 1-405 Y395A): as the sequence (P26039 1-405) above, with Y395A counted along it
T2 sequence (P26039 1-405 K403E): as the sequence (P26039 1-405) above, with K403E counted along it

Kd [1]: 105 µM and 87.6 µM
Kd [2]: 183 µM and 137 µM and 88 µM
Kd [3]: 105 µM
Kd (THD1 K403E): 60.9 µM
Kd (THD1 K404A): 90.1 µM
Kd (THD1 KKAA): 62.1 µM
Kd (THD1 Y395A): 27.7 µM
Kd (THD1 K401A): 82.5 µM
Kd (KIND2 Y13A): 9.85 µM and 9.2 µM and 9.18 µM and 7.89 µM
B1: ATTO 488-labeled integrin β3 cytoplasmic tail (488–β3-CT) (peptide, UniProt O54890 741-787, looked up)
peptide: {ATTO 488}-KLLITIHDRKEFAKFEEERARAKWDTANNPLYKEATSTFTNITYRGT
notes: integrin β3 cytoplasmic tail (β3-CT); source: synthetic peptide (MPIB Core Facility)
